Where no end group is shown, it is not given here. Me3 = trimethyl-lysine (Kme3); Me2 = dimethyl-lysine (Kme2)
What was measured:
FXR2 Tudor domains = FXR2 Tudor domains (Homo sapiens, UniProt P51116); experiment: Fluorescence polarization binding of histone peptides to FXR2 tandem Tudor domains; details: bound printed in mM in the cell, fluoresceinated peptide 100 nM, 20 mM Tris-Cl pH 8.0, 50 mM NaCl, 1 mM DTT, 30 min room temperature
FXR1 Tudor domains = FXR1 Tudor domains (Homo sapiens, UniProt P51114); experiment: Fluorescence polarization binding of histone peptides to FXR1 tandem Tudor domains; details: bound printed in mM in the cell, fluoresceinated peptide 100 nM, 20 mM Tris-Cl pH 8.0, 50 mM NaCl, 1 mM DTT, 30 min room temperature
[1] = biological target: T1, FXR1 tandem Tudor domains (amino acids 2 to 132 of Fragile X Mental Retardation Syndrome-related Protein 1) (UniProt P51114 2-132); experiment: fluorescence polarisation; fluoresceinated peptide at 100 nM; FXR1 (stock 1.03 mM) or FXR2 (stock 2.4 mM) in serial twofold dilutions from 1/2 to 1/1024; 20 mM Tris-Cl pH 8.0, 50 mM NaCl, 1 mM DTT; room temperature, 30 minutes; details: both partners purified
T1 construct: Fragile X Mental Retardation Syndrome-related Protein 1 (FXR1), amino acids 2 to 132, tandem Tudor domains; residues 4 to 122 seen in the crystal structure; Cloned in pET-28a-MHL as His6-TEV-FXR1; The methods describe expression in minimal media with selenomethionine; also called FXR1 Tudor domains; NLS of FXR1; source: E. coli BL21 derivative with pRARE, purified (Ni-NTA, Superdex 75); not …

[2] = biological target: T2, FXR2 tandem Tudor domains (amino acids 14 to 137 of Fragile X Mental Retardation Syndrome-related Protein 2) (UniProt P51116 14-137); experiment: as above; details: both partners purified
T2 construct: Fragile X Mental Retardation Syndrome-related Protein 2 (FXR2), amino acids 14 to 137, tandem Tudor domains; residues 13 to 136 reported for the crystal structure; Cloned in pET-28a-MHL as His6-TEV-FXR2; the purification tag was not removed from FXR2; The methods describe expression in minimal media with selenomethionine; also called FXR2 Tudor domain; NLS of FXR2; source: E. coli BL21 derivative …
T2 sequence (P51116 14-137): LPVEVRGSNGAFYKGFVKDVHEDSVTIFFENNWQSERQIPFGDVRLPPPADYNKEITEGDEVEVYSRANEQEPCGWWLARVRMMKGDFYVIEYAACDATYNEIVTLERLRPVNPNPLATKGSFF

T1 sequence (P51114 2-132): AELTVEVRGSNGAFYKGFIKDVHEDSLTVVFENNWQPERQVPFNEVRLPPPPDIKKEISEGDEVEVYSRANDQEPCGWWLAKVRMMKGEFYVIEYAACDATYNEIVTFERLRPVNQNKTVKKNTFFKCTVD

Row | Molecule | Kd [1] | Kd [2] | also measured
1 | C[C@H](N)C(=O)N[C@@H](CCCNC(=N)N)C(=O)N[C@H](C(=O)N[C@@H](CCCC[N+](C)(C)C)C(=O)N[C@@H](CCC(N)=O)C(=O)N[C@H](C(=O)N[C@@H](C)C(=O)N[C@@H](CCCNC(=N)N)C(=O)N[C@@H](CCCCN)C(=O)N[C@@H](CO)C(=O)N[C@H](C(=O)O)[C@@H](C)O)[C@@H](C)O)[C@@H](C)O [H3K4me3] | – | – | Kd (FXR2 Tudor domains): > 1 mM
2 | CC(C)C[C@H](NC(=O)[C@@H](NC(=O)[C@H](CCCCN)NC(=O)[C@H](CCCNC(=N)N)NC(=O)[C@H](Cc1c[nH]cn1)NC(=O)[C@H](CCCNC(=N)N)NC(=O)[C@H](CCCCN)NC(=O)[C@H](C)NC(=O)CNC(=O)CN)C(C)C)C(=O)N[C@@H](CCCNC(=N)N)C(=O)N[C@@H](CC(=O)O)C(=O)N[C@@H](CC(N)=O)C(=O)O [H4K20] | – | – | Kd (FXR1 Tudor domains): > 1 mM
3 | GGAKRHRK(Me3)VLRD (also: fluorescein, position not given here, histone H4 tail peptide, K20 trimethylated; source: synthetic peptide (Tufts University Core Services)) [H4K20me3 peptide, fluoresceinated] | 692 ± 113 µM | 448 ± 19 µM | –
4 | ARTK(Me3)QTARKST (also: fluorescein, position not given here, histone H3 tail peptide, K4 trimethylated; source: synthetic peptide (Tufts University Core Services)) [H3K4me3 peptide] | 660 ± 121 µM | – | –
5 | GGAKRHRKVLRDN (also: fluorescein, position not given here, histone H4 tail peptide around K20, unmethylated; also called H4K20Me0; source: synthetic peptide (Tufts University Core Services)) [H4K20 peptide (unmethylated histone H4 peptide)] | – | 1060 ± 63 µM | –
6 | GGAKRHRK(Me2)VLRD (histone H4 tail peptide, K20 dimethylated; source: synthetic peptide (Tufts University Core Services)) [H4K20me2 peptide] | – | 633 ± 30 µM | –

Source: paper PMC2970552, “Structural Studies of the Tandem Tudor Domains of Fragile X Mental Retardation Related Proteins FXR1 and FXR2” (PLoS ONE, 2010)
